From PMC6166240
Where two headings read alike, the source gives them in different places.

How the values were obtained:
Experiment in all cases: X-ray crystallography
[1] = target: T1, AbdB homeodomain with W motif (crystal construct);Exd homeodomain (crystal construct) (Drosophila;Drosophila, UniProt P09087-2;P40427 ;, |)
[2] = target: T1, AbdB homeodomain with W motif (crystal …); remark: listed apart in the source
[3] = target: T1, AbdB homeodomain with W motif (crystal …); remark: listed apart in the source
[4] = target: AbdB homeodomain with W motif (crystal construct) (Drosophila, UniProt P09087-2)
Chain of AbdB homeodomain with W motif (crystal construct) (P09087 369-452): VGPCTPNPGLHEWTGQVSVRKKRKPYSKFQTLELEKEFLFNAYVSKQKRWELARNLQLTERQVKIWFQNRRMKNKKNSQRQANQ

[5] = target: T1, AbdB homeodomain with W motif (crystal …); remark: listed apart in the source

T1 sequence (P09087 369-452, chain 1 of 2): as the sequence (P09087 369-452) above
T1 sequence (P40427 237-310, chain 2 of 2): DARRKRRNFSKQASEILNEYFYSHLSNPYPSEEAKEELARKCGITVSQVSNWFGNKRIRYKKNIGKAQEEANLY

B1: red (crystal) (dsDNA)
DNA 1: GCATGATTTATGAC
DNA 2: GTCATAAATCATGC
Question: Does B1 bind [1]?
Answer: binds

B2: magenta (crystal) (dsDNA)
DNA 1: GCATGATTACGAC
DNA 2: GTCGTAATCATGC
Question: Does B2 bind [2]?
Answer: binds

B3: black (crystal) (dsDNA)
DNA 1: GCATGATAAATGAC
DNA 2: GTCATTTATCATGC
Question: Which results are given for B3?
Answer: binding result [3]: binds; binding result [4]: binds

B4: blue (crystal) (dsDNA)
DNA 1: GCATGATTAATGAC
DNA 2: GTCATTAATCATGC
Question: Does B4 bind [5]?
Answer: binds
